tested on: K4 kissing-loop RNA reporter; experiment: apparent KD of K4 kissing-loop reporter; higher = weaker reporter binding; details: Eterna round: R107; input ligand: FMN 200 uM
Procedure: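 RNA-MaP round R107: designed RNA switches with theophylline, tryptophan, arginine or FMN aptamers are transcribed on-chip within common flanks. They are titrated with a labelled K4 kissing-loop RNA reporter in RNA-MaP buffer (100 mM Tris pH 7.5, 80 mM KCl, 4 mM MgCl2), without ligand or with the indicated ligand. Median apparent KD per design.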
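Also: bound reporter read as fluorescence of individual clusters on recovered sequencing chips by microscopy, with normalized cluster intensities fitted with a binding model.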

Sequence | apparent KD of K4 kissing-loop reporter
UUUUUUAAGAUAUUGACCAACCCGAAGCUACGAGGACCGGUACGGCCGCCACUCGCCAGUGAUGUUGGCGACUGGUGAAACCAUG [KL-XTryp-A24] | 126 nM
GGAGGAGAAUAUGAUACCAGCAGAGAGAGAUACGAAGUAUAGUGAUGUUAUAUGAGAGAAUGCCCUUGGCAGCAUAAGACGCAGG [#08 K4 Theophylline B Same State] | 86 nM
CUUGGAAGGACGGCCGCCACUCGACAGUGAUGUUGUCCGAGUUGGUAACGCAGUGAUGUUGUGUCGAGGACCGGGUCCUAGGAAU [Exclusion Tryptophan B GF 26] | 199 nM
UGAUUGGCAAAAGUAGUGAUGUUACGAAUAUAGGAUAUUAGAGGAAUAAGAAGGAUAAGGGAGAAAUAGGUAAAUUGUUGGUUGG [whbob_SS_FMNA__2th171] | 45.6 nM
UAUAAUUCGGCGGCCGCCACUGACCAUAGCCUUCGAUGGCCAGUGAUGUUGGCCUCUGGCUCUAACAGGACCGGGCCGAAUUGUG [Reresoza] | 211 nM
UGAUAGGACAGAAGGAGCGGAAUGCUAGUCAAAGACUAGCAACGUUAAACAGGAGUGAUGUUCCAGGUAGGUCGCUGUCCUAUCU [ArgBX 22 #SwitchBubble #StaticStem] | 143 nM
CAUUCGAAAUGCAGUGAUGUUGCAACUGAUACCAGUAUCGAAAGAUACCCUUGGCAGCGGAAAACCGCUACGUAUUUUUUGAAUG [Ex Theophylline A K4 25] | 257 nM
AGUGGUGUUGUGUUAUGUUUGGGAAGUGAUCGAGGACCGGUACGGCCGCCACUCGAGUGAUGAGUGAGUGAUGUUUGUUUAGGGA [whbob_SS_Tryp_A_m10] | 927 nM
UGACUGGACUGAAGGAGCGUUGAAGGAGCGUAAGUAGUGAUGUUGCUUACAGGUAGGUCGCAGCAGGUAGGUCGCAGUCUAGUCU | 67.1 nM
UGUACCGAGUCAGGAUAUGGCCGGAAACGGAAUAACCAGUGAUGUUGGAAUAAAUGGCGAAAGCCUCCAGAAGGGACUUGGUACU [FmnBS 18 #SwitchBubble #StaticStem #DoubleMagnetSystem] | 158 nM
AGAACUGUCUGAGAUACCAGCUAAGGAGUGAUGUUCCUAGGUCCACGAAAGUGGACCCAUAGCCCUUGGCAGCUCAGACAGUUCA [#23 K4 Theophylline B Same State] | 1280 nM
CGGAUGUAGUGAUGUUAUAUUAGAUGUAGACGAGGACCGGUACGGCCGCCACUCGUGACGGCUGCUAGCGCGUUGCGAGGUGUGC [ExTryptoA.Cm] | 729 nM
UUAGUCAGAUUAUUAUUAGCCUGCGAGUCUAAGGAUAUCCGAAUUCGGAGAAGGUAGUGAUGUUACUUUGGCAGGCACUGACAUU [AK9 Exc FMN A] | 807 nM
GGAUAGGACAGAGGAUAUGGUAGUGAUGUUACCAAACUGGUUACUUUUGUCAGAAAACUGGCAUUUCCAGAAGGCUGUCCUAUCG [KL-XFMN-B12] | 287 nM
AUUUAAUUAACUGAUACCAGACUUUUUGUUUUGAUAAUUACUAGUGAUGUUAGUGUUUCUGUCCCUUGGCAGCAGAAUCUACUUA [JR_ExcTheophyB_Sub018] | 145 nM
AUAGGAGUGAUGUUCCUUAGUCUCUCCGAUACCAGUAUGGAAACAUACCCUUGGCAGCGGGAGACCGCAGAUUAGGAAACUAGUC [Theophylline A K4 5] | 178 nM

Sequence | apparent KD of K4 kissing-loop reporter
GGGAAGGGACACAAGGAGGAACGAAGGGAAGGAGCGCCGGAGGAGGCAGGUAGGUCGCCCAACCAGUGAUGUUGGAAUUUAAUCC [Default title] | 242 nM
UCCCGAGUGAUGUUCGGCGCGGUCACCGAAGGAGCGGGCGAAAGCCCAGGUAGGUCGCGGUAGCGGAGUGAUUCUCCGCGACCGC [Same State Arginine A GF 24] | 509 nM
AAGUGUCAUUAGACACACUGAUGUAUAAACUAGGAUAUGCUGAUAAGCAGAAGGAGUGAUGUUCCUUUCAACAUCAGAAUUAAAU [KL-XFMN-A1] | 270 nM
AAUAAAAUCACGGCCGCCACUGAUGUUAAUAUUAGCAGUGAUGUUGCUAUGUCGUUUUUCUUUAACAGGACCGGGUGAAUAUUUA [#22 K4 Tryptophan B Exclusion] | 156 nM
UUUAACGAGUGAUGUUCGAAGAGUAAUGGUGAGGAUAUCGAUUUUUCGAGAAGGCACCUCGAAGUGAUACGAAAGUAUCGCUUCG [FMN A 5] | 171 nM
CGCUUUGCGUCCGGUAGUGAUGUUACCAAGCGAGGACCGGUACGGCCGCCACUCGAGUGACAGACGUACUGGUAUCACCCGCUUU | 223 nM
AUUUGUUUAUGUGAUACCAGACUAAGCAGUGAUGUUGCUUUUAUUUUUGAAUUUUAAAUAGUCCCUUGGCAGCACUAUGUAUUUA [JR_SSTheophyB_Sub010] | 60.6 nM
ACGACGCAUAGUGAUACCAGCAUUAUAUGAGUGAUGUUCUACCUAAAAUGGUAAUAAUGAUGCCCUUGGCAGCACUAUGCGUCAG [KL-SSTheoB2] | 400 nM
AUGCGACGUGCGGCCGCCACUCGGAUGCGAGUGAUGUUCGCGGGCCGGCCGCAAGGCCGGCAUUCGAGGACCGGGCAUCGGUGUA [#2 Same State - Tryptophan B Attempt #1 (HarryS)] | 420 nM
UGACUGGACUGAAGGAGCGCGAAACUCCUAGUGAUGUUAGGAAUACGAGACAAAGUCUCGACGCAGGUAGGUCGCAGUCUAGUCU [ArgBS 16 #SwitchBubble #StaticStem] | 115 nM
GGAUAGGACAGAGGAUAUGGACAGUCUACAAAGUAGGCUGAAAAUCCUUGAAUGGAAGUGAUGUUUCUAGAAGGCUGUCCUAUCG [FmnBX 19 - #SwitchBubble #StaticStem #Palindromic] | 800 nM
AGUAAUGUCACGGCCGCCACUCUUUAUUGUUUUUAUAGUUAUAAAUCUUGCCAGUGAUGUUGGUAGAGGACCGGGUGACUUAAUA [#26 K4 Tryptophan B Same State] | 222 nM
AGUGAUGUUGUGUUAUGCUAGGGAAGUGAUCGAGGACCGGUACGGCCGCCACUCGAGUGAUGAGUGAGUGAUGUUUGUUUAGGGA [sdsmullin] | 1100 nM
GCAUCCUAGUCGGCCGCCACUAACAUGAGUGAUGUUCAUGUACGUCAGUGAUGUUGACGUAGUUAUAGGACCGGGACUAGGAUGC [KL-SSTryp-B7 Brourdwalk3] | 146 nM
AUUUUGUUGUCAGGAUAUUAGUAUGGUUUUGGUUUGUUAGUGAUGUUGAUGGUUUGUUUAUGUAUUUAAGAAGGGAUUUAGCGGU [swwsgumullin] | 693 nM
UUUAUAAUGUCGGCCGCCACUGGAUUAAUAUUUGUAUAAUCUAGUUCAAAGUGAUGUUUUGAGUCCAGGACCGGGACAUUUGUUA [JR_ExcTryptoB_Sub003] | 570 nM

same assay, conditions: Eterna round: R107; input ligand: arginine 13.2 mM

Sequence | apparent KD of K4 kissing-loop reporter
UUUUUUAAGAUAUUGACCAACCCGAAGCUACGAGGACCGGUACGGCCGCCACUCGCCAGUGAUGUUGGCGACUGGUGAAACCAUG [KL-XTryp-A24] | 98.9 nM
GGAGGAGAAUAUGAUACCAGCAGAGAGAGAUACGAAGUAUAGUGAUGUUAUAUGAGAGAAUGCCCUUGGCAGCAUAAGACGCAGG [#08 K4 Theophylline B Same State] | 83.3 nM
CUUGGAAGGACGGCCGCCACUCGACAGUGAUGUUGUCCGAGUUGGUAACGCAGUGAUGUUGUGUCGAGGACCGGGUCCUAGGAAU [Exclusion Tryptophan B GF 26] | 149 nM
UGAUUGGCAAAAGUAGUGAUGUUACGAAUAUAGGAUAUUAGAGGAAUAAGAAGGAUAAGGGAGAAAUAGGUAAAUUGUUGGUUGG [whbob_SS_FMNA__2th171] | 48.4 nM
UAUAAUUCGGCGGCCGCCACUGACCAUAGCCUUCGAUGGCCAGUGAUGUUGGCCUCUGGCUCUAACAGGACCGGGCCGAAUUGUG [Reresoza] | 164 nM
UGAUAGGACAGAAGGAGCGGAAUGCUAGUCAAAGACUAGCAACGUUAAACAGGAGUGAUGUUCCAGGUAGGUCGCUGUCCUAUCU [ArgBX 22 #SwitchBubble #StaticStem] | 124 nM
CAUUCGAAAUGCAGUGAUGUUGCAACUGAUACCAGUAUCGAAAGAUACCCUUGGCAGCGGAAAACCGCUACGUAUUUUUUGAAUG [Ex Theophylline A K4 25] | 317 nM
AGUGGUGUUGUGUUAUGUUUGGGAAGUGAUCGAGGACCGGUACGGCCGCCACUCGAGUGAUGAGUGAGUGAUGUUUGUUUAGGGA [whbob_SS_Tryp_A_m10] | 636 nM
